Test system: Chk1
Assay: Chk1 kinase activity of enzyme preparations, ADP production coupled through pyruvate kinase and lactate dehydrogenase (Syntide-2 substrate)
Assay type: biochemical, human
Conditions: for Rate/min: prep concentration 75 nM (HA2-013), 2 nM (HA2-022), 7.3 nM (HB2-061), 0.125 mM Syntide-2, 0.15 mM ATP; for Activity: relative to full length Chk1 (control = 1)
Experimental: The kinase activity of the hChk1 was determined by monitoring the ADP production through enzymatic actions of pyruvate kinase and lactate dehydrogenase. […] Unlike the other forms of Chk1 which have proven difficult to work with (isolate, purify, crystallize, etc), the 1-289 kinase domain form of the human Chk1 enzyme facilitated crystallography, enzyme characterization, and high throughput screening of inhibitors. In particular, the Chk1 kinase domain was used to determine its 3-dimensional structure, which provides unique structural information for inhibitor design for therapeutic development.
The enzymatic activity of a kinase is measured by its ability to catalyze the transfer of a phosphate residue from a nucleoside triphosphate to an amino acid side chain in a selected protein target. The conversion of ATP to ADP generally accompanies the catalytic reaction. Herein, a synthetic substrate peptide, Syntide-2, having amino acid sequence PLARTLSVAGLPGKK (SEQ ID NO. 11) was utilized. The production of ADP from ATP that accompanies phosphoryl transfer to the substrate was coupled to oxidation of NADH using phosphoenolpyruvate (PEP) through the actions of pyruvate kinase (PK) and lactic dehydrogenase (LDH). The oxidation of NADH was monitored by following the decrease of absorbance at 340 nm (e340=6.22 cm−1 mM−1) using a HP8452 spectrophotometer. Typical reaction solutions contained: 4 mM PEP, 0.15 mM NADH, 28 units of LDH/mL, 16 units of PK/mL, 3 mM DTT, 0.125 mM Syntide-2, 0.15 mM ATP and 25 mM MgCl2 in 50 mM TRIS pH 7.5; 400 mM NaCl. Assays were initiated with 10 nM of kinase domain of Chk1, KH289. Ki values were determined by measuring initial enzyme activity in the presence of varying concentrations of inhibitors. The data were analyzed using Enzyme Kinetic and Kaleidagraph software.
The table below (Table 3) compares three different preparations of Chk1. The first preparation is the full length form, which comprises amino acids 1-476 of SEQ ID NO. 2. The next preparation contains proteolytically cleaved fragments, a mixture of Chk1 protein fragments obtained from the full-length protein during fermentation. The exact enzymes involved and cleavage site generated for these fragments is unknown. […] The third preparation is the kinase domain of amino acids 1-289 of SEQ ID NO. 2 (KH289) As mentioned above, the assay used detects the ADP product by coupling through the enzymatic actions of pyruvate kinase and lactate dehydrogenase.

Sequence of Chk1 (O14757 9-265 limits assumed): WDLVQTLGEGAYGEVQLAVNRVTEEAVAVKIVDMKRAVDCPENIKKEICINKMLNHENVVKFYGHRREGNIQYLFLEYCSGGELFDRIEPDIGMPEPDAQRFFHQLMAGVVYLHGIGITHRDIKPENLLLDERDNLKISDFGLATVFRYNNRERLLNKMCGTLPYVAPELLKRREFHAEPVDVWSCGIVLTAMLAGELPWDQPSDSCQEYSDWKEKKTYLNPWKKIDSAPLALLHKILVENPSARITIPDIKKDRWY

Row | Rate/min | Activity | Molecule | enzymatic activity compared with the full length protein (ADP production via pyruvate kinase and lactate dehydrogenase)
1 |  |  | KH289: human Chk1 kinase domain (AA 1-289), C-terminal 6xHis-tag (protein) MAVPFVEDWDLVGTLGEGAYGEVQLAVNRVTEEAVAVKIVDMKRAVDCPENIKKEICINKMLNHENVVKFYGHRREGNIQYLFLEYCSGGELFDRIEPDIGMPEPDAQRFFHQLMAGVVYLHGIGITHRDIKPENLLLDERDNLKISDFGLATVFRYNNRERLLNKMCGTLPYVAPELLKRREFHAEPVDVWSCGIVLTAMLAGELPWDQPSDSCQEYSDWKEKKTYLNPWKKIDSAPLALLHKILVENPSARITIPDIKKDRWYNKPLKKGAKRPRVTSGGVSESPSGHHHHHH | higher enzymatic activity than the full length protein
2 | 0.0190 | 1 (control) fold | HA2-013: preparation of the full length form of human Chk1, amino acids 1-476 of SEQ ID NO. 2 (protein, listed as Homo sapiens) MAVPFVEDWDLVGTLGEGAYGEVQLAVNRVTEEAVAVKIVDMKRAVDCPENIKKEICINKMLNHENVVKFYGHRREGNIQYLFLEYCSGGELFDRIEPDIGMPEPDAQRFFHQLMAGVVYLHGIGITHRDIKPENLLLDERDNLKISDFGLATVFRYNNRERLLNKMCGTLPYVAPELLKRREFHAEPVDVWSCGIVLTAMLAGELPWDQPSDSCQEYSDWKEKKTYLNPWKKIDSAPLALLHKILVENPSARITIPDIKKDRWYNKPLKKGAKRPRVTSGGVSESPSGFSKHIQSNLDFSPVNSASSEENVKYSSSQPEPRTGLSLWDTSPSYIDKLVQGISFSQPTCPDHMLLNSGLLGTPGSSQNPWQRLVKRMTRFFTKLDADKSYQCLKETCEKLQYQWKKSCMNQVTISTTDRRNNKLIFKVNLLEMDDKILVDFRLSKGDGLEFKRHFLKIKGKLIDIVSSQKVWLPAT | 
3 | 0.0200 | +10 fold | HB2-061: preparation of the kinase domain of amino acids 1-289 of SEQ ID NO. 2 (KH289) (protein, listed as Homo sapiens) MAVPFVEDWDLVGTLGEGAYGEVQLAVNRVTEEAVAVKIVDMKRAVDCPENIKKEICINKMLNHENVVKFYGHRREGNIQYLFLEYCSGGELFDRIEPDIGMPEPDAQRFFHQLMAGVVYLHGIGITHRDIKPENLLLDERDNLKISDFGLATVFRYNNRERLLNKMCGTLPYVAPELLKRREFHAEPVDVWSCGIVLTAMLAGELPWDQPSDSCQEYSDWKEKKTYLNPWKKIDSAPLALLHKILVENPSARITIPDIKKDRWYNKPLKKGAKRPRVTSGGVSESPSG | 

Source: patent US6670167B1, “Catalytic domain of the human effector cell cycle checkpoint protein kinase materials and methods for identification of inhibitors thereof” (Agouron Pharmaceuticals, Inc., priority 1999, dated 2003)
